In the RNAGym collection of RNA variant scans (doi:10.1093/molbev/msab373) one finds reverse-splicing fitness data, which are given here for 15 variants.

B1: Azoarcus group I ribozyme (parent)
chain: GUGCCUUGCGCCGGGAAACCACGCAAGGGAUGGUGUCAAAUUCGGCGAAACCUAAGCGCCCGCCCGGGCGUAUGGCAACGCCGAGCCAAGCUUCGGCGCCUGCGCCGAUGAAGGUGUAGAGACUAGACGGCACCCACCUAAGGCAAACGCUAUGGUGAAGGCAUAGUCCAGGGAGUGGCGAAAGUCACACAAACCGG

In this data set the parent is B1. Description: reverse-splicing fitness (ratio to wild type); higher = more active; in vitro selection; Mg2+ level not given. The method in brief:
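An in vitro group I ribozyme library with randomized positions was T7-transcribed and gel-purified. In triplicate, 10 pmol RNA in EPPS pH 7.5 was reacted with 50 pmoles of a 30-nt RNA substrate for 1 h at 37 °C across several added MgCl2 levels (1–48 mM), then stopped with EDTA. Products were reverse transcribed from a substrate-complementary primer, PCR-amplified and sequenced (HiSeq 4000). Fitness is a variant's read proportion after selection over that before, normalised to wild type.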
Take GUGCCUUGCGCCGGGAAACCACGCAAGGGAUGGUGUCAAAUUCGGCGAAACCUAAGCGCCCGCCCGGGCGUAUGGCAACGCAGAGCCAAGCUUCGGCGCCUGCGCCGAUGCAGGUGUAGCGACUAGACGGCACCCACCUAAGGCCAACGGUAUGGUGAAGGCAUAGUCUAGGGAGUGGCGAAAGUCACACAAACCGG [C82A A111C A120C A145C C150G C169U]: the reverse-splicing fitness was determined as 0.00879. On to GUGCCUUGCGCCGGGAAACCACGCAAGGGAUGGUGUCAAAUUCGGCGAAACCUAAGCGCCCGCCCGGGCGUAUGGCAACGCAGAGCCAAGCUUCGGCGCCUGCGCCGAUGCAGGUGUAGCGACUAGACGGCACCCACCUAAGGCCAACGGUAUGGUGAAGGCAUAGUCGAGGGAGUGGCGAAAGUCACACAAACCGG [C82A A111C A120C A145C C150G C169G], for which the reverse-splicing fitness came to 0.00631. Take GUGCCUUGCGCCGGGAAACCACGCAAGGGAUGGUGUCAAAUUCGGCGAAACCUAAGCGCCCGCCCGGGCGUAUGGCAACGCAGAGCCAAGCUUCGGCGCCUGCGCCGAUGCAGGUGUAGCGACUAGACGGCACCCACCUAAGGCCAACGGUAUGGUGAAGGCAUAGUCAAGGGAGUGGCGAAAGUCACACAAACCGG [C82A A111C A120C A145C C150G C169A]: the reverse-splicing fitness was 0.00854. With GUGCCUUGCGCCGGGAAACCACGCAAGGGAUGGUGUCAAAUUCGGCGAAACCUAAGCGCCCGCCCGGGCGUAUGGCAACGCAGAGCCAAGCUUCGGCGCCUGCGCCGAUGCAGGUGUAGAGACUAGACGGCACCCACCUAAGGCAAACGCUAUGGUGAAGGCAUAGUCCAGGGAGUGGCGAAAGUCACACAAACCGG [C82A A111C], the reverse-splicing fitness was determined as 0.228. With GUGCCUUGCGCCGGGAAACCACGCAAGGGAUGGUGUCAAAUUCGGCGAAACCUAAGCGCCCGCCCGGGCGUAUGGCAACGCAGAGCCAAGCUUCGGCGCCUGCGCCGAUGCAGGUGUAGCGACUAGACGGCACCCACCUAAGGCCAACGGUAUGGUGAAGGCAUAGUCAAGGGAGGGGCGAAAGUCACACAAACCGG [C82A A111C A120C A145C C150G C169A U176G], the reverse-splicing fitness worked out at 0.00767. The result for GUGCCUUGCGCCGGGAAACCACGCAAGGGAUGGUGUCAAAUUCGGCGAAACCUAAGCGCCCGCCCGGGCGUAUGGCAACGCAGAGCCAAGCUUCGGCGCCUGCGCCGAUGCAGGUGUAGCGACUAGACGGCACCCACCUAAGGCCAACGGUAUGGUGAAGGCAUAGUCAAGGGAGAGGCGAAAGUCACACAAACCGG [C82A A111C A120C A145C C150G C169A U176A] reads 0.00949; that for GUGCCUUGCGCCGGGAAACCACGCAAGGGAUGGUGUCAAAUUCGGCGAAACCUAAGCGCCCGCCCGGGCGUAUGGCAACGCAGAGCCAAGCUUCGGCGCCUGCGCCGAUGCAGGUGUAGCGACUAGACGGCACCCACCUAAGGCCAACGGUAUGGUGAAGGCAUAGUCAAGGGAGCGGCGAAAGUCACACAAACCGG [C82A A111C A120C A145C C150G C169A U176C], 0.00798. Turning to GUGCCUUGCGCCGGGAAACCACGCAAGGGAUGGUGUCAAAUUCGGCGAAACCUAAGCGCCCGCCCGGGCGUAUGGCAACGCAGAGCCAAGCUUCGGCGCCUGCGCCGAUGCAGGUGUAGCGACUAGACGGCACCCACCUAAGGCCAACGAUAUGGUGAAGGCAUAGUCCAGGGAGCGGCGAAAGUCACACAAACCGG [C82A A111C A120C A145C C150A U176C], the reverse-splicing fitness came out at 0.011. The result for GUGCCUUGCGCCGGGAAACCACGCAAGGGAUGGUGUCAAAUUCGGCGAAACCUAAGCGCCCGCCCGGGCGUAUGGCAACGCAGAGCCAAGCUUCGGCGCCUGCGCCGAUGCAGGUGUAGCGACUAGACGGCACCCACCUAAGGCCAACGAUAUGGUGAAGGCAUAGUCCAGGGAGGGGCGAAAGUCACACAAACCGG [C82A A111C A120C A145C C150A U176G] reads 0.00581; that for GUGCCUUGCGCCGGGAAACCACGCAAGGGAUGGUGUCAAAUUCGGCGAAACCUAAGCGCCCGCCCGGGCGUAUGGCAACGCAGAGCCAAGCUUCGGCGCCUGCGCCGAUGCAGGUGUAGCGACUAGACGGCACCCACCUAAGGCCAACGAUAUGGUGAAGGCAUAGUCCAGGGAGAGGCGAAAGUCACACAAACCGG [C82A A111C A120C A145C C150A U176A], 0.0106. On to GUGCCUUGCGCCGGGAAACCACGCAAGGGAUGGUGUCAAAUUCGGCGAAACCUAAGCGCCCGCCCGGGCGUAUGGCAACGCAGAGCCAAGCUUCGGCGCCUGCGCCGAUGCAGGUGUAGCGACUAGACGGCACCCACCUAAGGCCAACGGUAUGGUGAAGGCAUAGUCGAGGGAGGGGCGAAAGUCACACAAACCGG [C82A A111C A120C A145C C150G C169G U176G], for which the reverse-splicing fitness was 0.00702. As to GUGCCUUGCGCCGGGAAACCACGCAAGGGAUGGUGUCAAAUUCGGCGAAACCUAAGCGCCCGCCCGGGCGUAUGGCAACGCAGAGCCAAGCUUCGGCGCCUGCGCCGAUGCAGGUGUAGCGACUAGACGGCACCCACCUAAGGCCAACGGUAUGGUGAAGGCAUAGUCGAGGGAGAGGCGAAAGUCACACAAACCGG [C82A A111C A120C A145C C150G C169G U176A], the reverse-splicing fitness worked out at 0.00867.

As to GUGCCUUGCGCCGGGAAACCACGCAAGGGAUGGUGUCAAAUUCGGCGAAACCUAAGCGCCCGCCCGGGCGUAUGGCAACGCAGAGCCAAGCUUCGGCGCCUGCGCCGAUGCAGGUGUAGCGACUAGACGGCACCCACCUAAGGCCAACGGUAUGGUGAAGGCAUAGUCGAGGGAGCGGCGAAAGUCACACAAACCGG [C82A A111C A120C A145C C150G C169G U176C], the reverse-splicing fitness amounted to 0.0101. Next, GUGCCUUGCGCCGGGAAACCACGCAAGGGAUGGUGUCAAAUUCGGCGAAACCUAAGCGCCCGCCCGGGCGUAUGGCAACGCAGAGCCAAGCUUCGGCGCCUGCGCCGAUGCAGGUGUAGCGACUAGACGGCACCCACCUAAGGCCAACGAUAUGGUGAAGGCAUAGUCGAGGGAGUGGCGAAAGUCACACAAACCGG [C82A A111C A120C A145C C150A C169G]: 0.00813; GUGCCUUGCGCCGGGAAACCACGCAAGGGAUGGUGUCAAAUUCGGCGAAACCUAAGCGCCCGCCCGGGCGUAUGGCAACGCAGAGCCAAGCUUCGGCGCCUGCGCCGAUGCAGGUGUAGCGACUAGACGGCACCCACCUAAGGCCAACGAUAUGGUGAAGGCAUAGUCUAGGGAGUGGCGAAAGUCACACAAACCGG [C82A A111C A120C A145C C150A C169U]: 0.0105.
